# Results published in patent US6699869 (MYRIAD GENETICS, dated 2004).
# Non-standard residues stand in square brackets, D forms with d. No end group written: not given here. *: point of attachment. CH2Cl = ClC*
# Key:
# Assay in all cases: cell-based or functional assay
# [1] = target: Tissue Plasminogen Activator (t-PA)
# [2] = target: human Factor VIIa (FVIIa) and human tissue factor (TF) complex (human, UniProt P08709 61-466; P13726 33-251, limits assumed)
# [3] = target: bovine factor Xa (from Sigma) (bovine, UniProt P00743 41-492, limits assumed)
# Sequence of bovine factor Xa (from Sigma) (P00743 41-492 limits assumed): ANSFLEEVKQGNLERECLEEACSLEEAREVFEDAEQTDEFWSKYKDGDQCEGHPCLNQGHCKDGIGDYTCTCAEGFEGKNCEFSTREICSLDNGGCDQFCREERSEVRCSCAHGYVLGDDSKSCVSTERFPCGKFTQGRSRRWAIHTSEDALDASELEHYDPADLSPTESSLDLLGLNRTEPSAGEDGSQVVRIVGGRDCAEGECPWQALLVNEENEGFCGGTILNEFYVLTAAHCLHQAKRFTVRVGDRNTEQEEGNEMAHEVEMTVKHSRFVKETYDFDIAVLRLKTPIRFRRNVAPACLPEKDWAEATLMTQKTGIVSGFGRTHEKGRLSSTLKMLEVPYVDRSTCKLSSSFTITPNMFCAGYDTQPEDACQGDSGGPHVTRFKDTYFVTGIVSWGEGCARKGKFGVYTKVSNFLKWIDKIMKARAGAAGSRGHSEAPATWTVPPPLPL
# Plasmin = target: Plasmin
# [4] = target: bovine trypsin (from Sigma) (bovine, UniProt P00760 24-246)
# Sequence of bovine trypsin (from Sigma) (P00760 24-246): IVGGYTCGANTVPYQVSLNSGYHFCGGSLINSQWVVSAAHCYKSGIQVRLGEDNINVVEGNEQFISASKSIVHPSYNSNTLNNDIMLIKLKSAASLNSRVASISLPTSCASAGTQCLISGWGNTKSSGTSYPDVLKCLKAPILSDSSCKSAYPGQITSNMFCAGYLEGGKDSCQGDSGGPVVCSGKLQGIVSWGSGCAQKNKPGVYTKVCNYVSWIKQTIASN
# [5] = target: human urokinase (from Sigma) (human, UniProt P00749 21-431, limits assumed)
binder,measurement,setting,value
[dF]-Pro-Arg-CH2Cl [(D)FPR-CH2Cl],"IC50 (nM), inhibition of chromogenic substrate hydrolysis by the enzyme",[1],106 nM
same,"IC50 (nM), inhibition of chromogenic substrate hydrolysis by the enzyme",[2],200 nM
same,"IC50 (nM), inhibition of chromogenic substrate hydrolysis by the enzyme",[3],165 nM
same,"IC50 (nM), inhibition of chromogenic substrate hydrolysis by the enzyme",Plasmin,699 nM
same,"IC50 (nM), inhibition of chromogenic substrate hydrolysis by the enzyme",[4],212 nM
same,"IC50 (nM), inhibition of chromogenic substrate hydrolysis by the enzyme",[5],508 nM
